# ± gives the standard deviation of the averaged measurements.
# Tested on: ATP
# Assay: switch fluorescence ratio, 500 uM ATP over buffer (Cy3 cluster intensity, sum of 5 cycles each) (fold (ratio)); higher = stronger signal-on switching upon ATP binding; sequences stand for … in TCGTCGGCAGCGTCAGATGTGTATAAGAGACAGTTTTTTTTTTTTTTTTTTTTTTTTT…TC
# Conditions: aptamer strand: ATP DNA aptamer (quencher-CACCTGGGGGAGTATTGCGGAGGAAGG + anchor), 100 nM annealed; ATP concentration: 500 uM
# Method in brief: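 Switching-strand clusters labelled with Cy3 on a modified Illumina MiSeq flow-cell were annealed to 100 nM quencher-labelled ATP aptamer, imaged in selection buffer, and re-imaged after 15 min with 500 uM ATP at 22 °C. This was done over five cycles with NaOH stripping and re-annealing in between. The fluorescence ratio is summed target-cycle over summed buffer-cycle Cy3 intensity per cluster, averaged per switch-domain sequence, excluding clusters outside 100-1000 RFU.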
# 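Further: ATP exposure 15 min at 22 °C before imaging.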
row,Sequence,switch fluorescence ratio
1,TTCGGGTGGC,1.02 ± 0.051
2,TTCGGGTGTT,0.9932 ± 0.0029
3,TTCGGTATGC,0.98 ± 0.047
4,TTCGGTGGAG,0.96 ± 0.081
5,TTCGGTGTTG,0.969 ± 0.045
6,TTCGTAAGGG,1.012 ± 0.01
7,TTCGTACGTA,1 ± 0.06
8,TTCGTACTTT,1 ± 0.043
9,TTCGTAGGGC,1.01 ± 0.055
10,TTCGTAGTGA,1.18 ± 0.025
11,TTCGTATGTT,1.03 ± 0.05
12,TTCGTATTTT,0.992 ± 0.026
13,TTCGTCAATC,2.17 ± 1.3
14,TTCGTCGCTG,0.999 ± 0.037
15,TTCGTCTACA,0.98 ± 0.021
16,TTCGTCTGCT,1.02 ± 0.024
17,TTCGTGCATC,1.06 ± 0.026
18,TTCGTGGAAT,0.977 ± 0.028
19,TTCGTTATCT,0.981 ± 0.015
20,TTCGTTATGG,1 ± 0.046
21,TTCGTTTGTC,1 ± 0.02
22,TTCGTTTGTG,0.971 ± 0.027
23,TTCGTTTGTT,1.34 ± 0.56
24,TTCTAAACGT,1.06 ± 0.078
25,TTCTAAATGT,0.9995 ± 0.0021

row,Sequence,switch fluorescence ratio
1,TTCTAATGTA,0.993 ± 0.021
2,TTCTAATTAT,0.981 ± 0.019
3,TTCTAGCCTT,1.043 ± 0.00045
4,TTCTATATAT,1.01 ± 0.035
5,TTCTATCCTA,1.02 ± 0.012
6,TTCTATGTTT,0.996 ± 0.0094
7,TTCTATTATA,0.977 ± 0.018
8,TTCTATTGGT,0.9828 ± 0.0023
9,TTCTCCCGGG,1.29 ± 0.068
10,TTCTCGAATT,1.01 ± 0.039
11,TTCTCGGATG,0.995 ± 0.015
12,TTCTCGTCAA,5.06 ± 0.96
13,TTCTCGTGGC,0.96 ± 0.029
14,TTCTCGTGTG,0.974 ± 0.035
15,TTCTCTTTTG,0.993 ± 0.031
16,TTCTGACGG,1.48 ± 0.55
17,TTCTGAGGAT,0.989 ± 0.042
18,TTCTGAGGTA,1.01 ± 0.03
19,TTCTGCTGCT,1.02 ± 0.02
20,TTCTGCTTTC,1.11 ± 0.03
21,TTCTGGGAAA,0.9997 ± 0.0057
22,TTCTGGTGAT,0.999 ± 0.021
23,TTCTGTCTGG,0.994 ± 0.021
24,TTCTGTCTGT,1.05 ± 0.052
25,TTCTGTGCGG,0.978 ± 0.029

row,Sequence,switch fluorescence ratio
1,TTCTGTTAGC,1.03 ± 0.043
2,TTCTGTTCTG,1.01 ± 0.039
3,TTCTGTTGGG,0.984 ± 0.013
4,TTCTGTTTTG,1.01 ± 0.029
5,TTCTTAAACA,1.02 ± 0.013
6,TTCTTAAATT,0.981 ± 0.019
7,TTCTTAATTT,1 ± 0.025
8,TTCTTATAGA,1.0069 ± 1.4e-05
9,TTCTTCATTT,1.22 ± 0.26
10,TTCTTGGTCT,1.009 ± 0.0067
11,TTCTTGGTG,1.02 ± 0.072
12,TTCTTGTGTT,0.993 ± 0.042
13,TTCTTTACAC,1.039 ± 0.0025
14,TTCTTTAGAG,0.987 ± 0.055
15,TTCTTTCCGT,1.06 ± 0.026
16,TTCTTTCGAG,1.026 ± 0.0045
17,TTCTTTCTGT,0.998 ± 0.0026
18,TTCTTTGACG,1.09 ± 0.077
19,TTCTTTGAGA,1.006 ± 0.0062
20,TTCTTTGGCA,1.052 ± 0.0061
21,TTCTTTTCGT,0.979 ± 0.041
22,TTGAAACTTG,0.952 ± 0.018
23,TTGAAAGGAG,1 ± 0.026
24,TTGAAATGGT,0.987 ± 0.018
25,TTGAAATGTG,1.01 ± 0.017

row,Sequence,switch fluorescence ratio
1,TTGAACACGG,1.02 ± 0.034
2,TTGAACGGGG,0.9933 ± 0.0035
3,TTGAACTACT,1.03 ± 0.016
4,TTGAACTTTG,0.978 ± 0.061
5,TTGAAGAAGT,0.9724 ± 0.0095
6,TTGAAGCAGC,1.45 ± 0.2
7,TTGAAGCGGT,1.09 ± 0.11
8,TTGAAGCGTT,0.996 ± 0.018
9,TTGAAGGGGG,0.993 ± 0.035
10,TTGAAGGGTC,0.981 ± 0.057
11,TTGAAGGTCA,1.02 ± 0.015
12,TTGAAGGTCT,1 ± 0.05
13,TTGAAGGTTA,0.99 ± 0.016
14,TTGAAGTAGT,1.03 ± 0.1
15,TTGAAGTCTA,0.992 ± 0.027
16,TTGAAGTTGT,1.01 ± 0.039
17,TTGAATCGCG,1.0115 ± 0.00023
18,TTGAATTGGG,0.999 ± 0.046
19,TTGAATTGGT,0.995 ± 0.036
20,TTGAATTTAA,0.981 ± 0.025
21,TTGACACGGG,1.11 ± 0.025
22,TTGACCCGAC,1.4 ± 0.39
23,TTGACCCGGT,1.06 ± 0.085
24,TTGACCGACT,0.973 ± 0.043
25,TTGACGAGCG,1.13 ± 0.051

row,Sequence,switch fluorescence ratio
1,TTGACGCGTC,1.02 ± 0.018
2,TTGACGTTTC,1.02 ± 0.033
3,TTGACTAGCT,1.08 ± 0.09
4,TTGACTGTAG,0.982 ± 0.013
5,TTGACTTATT,1 ± 0.043
6,TTGAGACAGG,1.0131 ± 0.00096
7,TTGAGATCCA,0.9929 ± 0.0085
8,TTGAGATCCG,0.986 ± 0.053
9,TTGAGATGGA,1.01 ± 0.0062
10,TTGAGATGTT,1.01 ± 0.025
11,TTGAGCCTCC,1.2 ± 0.15
12,TTGAGCGGTC,1.1 ± 0.022
13,TTGAGCTAGT,1 ± 0.032
14,TTGAGGCACG,1.04 ± 0.042
15,TTGAGGGCGG,1.005 ± 0.0098
16,TTGAGGGGAG,1.01 ± 0.012
17,TTGAGGGGCA,1.01 ± 0.033
18,TTGAGGGTCG,0.995 ± 0.035
19,TTGAGGTC,1 ± 0.029
20,TTGAGTATGG,0.976 ± 0.028
21,TTGAGTCCTT,1.04 ± 0.022
22,TTGAGTGTCA,0.9852 ± 0.007
23,TTGAGTTGCG,0.986 ± 0.028
24,TTGAGTTGGT,0.95 ± 0.025
25,TTGAGTTTAC,1.058 ± 0.0028

row,Sequence,switch fluorescence ratio
1,TTGAGTTTGC,1 ± 0.051
2,TTGATACATA,1.03 ± 0.017
3,TTGATAGATG,0.975 ± 0.028
4,TTGATCGGTT,1.002 ± 0.00027
5,TTGATGAAAT,0.984 ± 0.014
6,TTGATGAAGT,1.01 ± 0.031
7,TTGATGAATT,1.01 ± 0.017
8,TTGATGACGT,0.9932 ± 0.0075
9,TTGATGAGGA,0.978 ± 0.048
10,TTGATGATAT,0.986 ± 0.019
11,TTGATGCAAA,1.01 ± 0.05
12,TTGATGCCGG,1.05 ± 0.049
13,TTGATGGGAG,1.07 ± 0.12
14,TTGATGGTTG,0.964 ± 0.021
15,TTGATGTGGG,0.975 ± 0.029
16,TTGATGTGTT,1 ± 0.028
17,TTGATTAAAT,0.9575 ± 0.0089
18,TTGATTAAGC,1.03 ± 0.043
19,TTGATTAATA,0.962 ± 0.022
20,TTGATTACTT,1 ± 0.04
21,TTGATTGGCA,0.993 ± 0.025
22,TTGATTTATT,0.994 ± 0.017
23,TTGATTTTGT,1.01 ± 0.019
24,TTGATTTTTA,0.99 ± 0.044
25,TTGATTTTTT,0.996 ± 0.029

row,Sequence,switch fluorescence ratio
1,TTGCAAAAGC,1 ± 0.065
2,TTGCAACTTT,1.12 ± 0.17
3,TTGCAAGAAT,1.023 ± 0.0021
4,TTGCAAGCGG,0.995 ± 0.011
5,TTGCACCGGT,1.034 ± 0.0055
6,TTGCACGGGT,1.01 ± 0.02
7,TTGCAGGAGG,1 ± 0.019
8,TTGCAGGGT,0.9804 ± 0.0019
9,TTGCATAGGG,1.02 ± 0.023
10,TTGCATATTT,1.05 ± 0.033
11,TTGCATGGTG,1.06 ± 0.03
12,TTGCCAAGTG,1.01 ± 0.02
13,TTGCCATGTG,1 ± 0.034
14,TTGCCGATAC,2.16 ± 0.12
15,TTGCCGCTTG,1.21 ± 0.33
16,TTGCCGGGAG,1.02 ± 0.066
17,TTGCCGGTAT,1.05 ± 0.021
18,TTGCCGTTCA,1.02 ± 0.013
19,TTGCCTGCAT,1.011 ± 0.0092
20,TTGCCTTCCG,2.17 ± 0.27
21,TTGCGAGCTT,0.986 ± 0.061
22,TTGCGAGGGG,0.9778 ± 0.006
23,TTGCGATGGG,0.995 ± 0.03
24,TTGCGCGGGG,1.02 ± 0.077
25,TTGCGGCGTG,0.956 ± 0.024

row,Sequence,switch fluorescence ratio
1,TTGCGGGAAC,1.07 ± 0.063
2,TTGCGGGGAA,1.03 ± 0.029
3,TTGCGGGGGA,1.01 ± 0.028
4,TTGCGGGGT,1.02 ± 0.011
5,TTGCGGTTAG,1.012 ± 0.0017
6,TTGCGGTTGA,1.0313 ± 0.00057
7,TTGCGGTTGG,1 ± 0.076
8,TTGCGTATGC,1.08 ± 0.11
9,TTGCTAATAT,1.038 ± 0.0093
10,TTGCTACAGT,1.01 ± 0.019
11,TTGCTATCAG,1 ± 0.047
12,TTGCTCAGGG,1.03 ± 0.041
13,TTGCTCGCCG,1.08 ± 0.035
14,TTGCTCTAAC,0.998 ± 0.022
15,TTGCTCTCTT,0.98 ± 0.083
16,TTGCTCTTTT,1.019 ± 0.0013
17,TTGCTGGGTG,1.1 ± 0.056
18,TTGCTGGTTG,1.01 ± 0.03
19,TTGCTGTACT,1.02 ± 0.021
20,TTGCTGTGTC,1.07 ± 0.028
21,TTGCTGTTGG,1.03 ± 0.033
22,TTGCTGTTGT,1.01 ± 0.022
23,TTGCTTAAGT,1.03 ± 0.075
24,TTGCTTCCAC,1.08 ± 0.032
25,TTGCTTGGTT,0.996 ± 0.011

# From the supplement of paper PMC10126150
